Laboratory results reported in PMC11772769, “Selective cargo and membrane recognition by SNX17 regulates its interaction with Retriever” (EMBO Reports, 2024).

Target: Peptide SNX17_(CT-18) (UniProt Q15036)
Test: fluorescence polarisation

Kd: 5.3 µM
Substance: VPS26C-VPS35L_(110-598) complex (from UniProt O14972 1-297; Q7Z3J2 110-598)
